Test: yeast display, Sf9 membrane polyspecificity reagent, FACS + sequencing; frameworks hold sequencing errors
In short: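 A synthetic nanobody library was expressed on Saccharomyces cerevisiae BJ5465 by galactose induction for 36–48 hours. The library was stained for 1 hour at 4 °C with 10% biotinylated, detergent-solubilized Sf9 membrane reagent and enriched with streptavidin microbeads before FACS. Low and high (top ~1%) gates were set on anti-HA fluorescence for expression and streptavidin fluorescence for reagent binding, and each polyreactivity label reflects the gate of origin.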

Sequence	polyreactivity (PSR sort gate)
QVQLVESGGGLVQARGSLRLSCAASGRTYAGYAMGWYRQAHGKERELVASITSGGRTYYADSVKGRFTISRDNAKNTVYLQMNSLKPEDTAVYYCNKVYKSYYWGGYDWGQGTQVTVSS	high polyreactivity
QVQLVESGGGLVQARGSLRLSCAASGSIFFRYTMGWYRPAPGKEWELVATITGSGSSTTYADSVKGRFTISRDNAKNTVYLQMNSLKPEDTAVSYCAAADIIDHSFPYDYWGQGTQVTVSS	low polyreactivity
QVQLVESGGGLVQARGSLRLSCAASGSIFTYNAMGWYRQAPGKERELVAAIDYSGGSTYYADSVKGRFTISRDNAKNTVYLQMKSLKPEDTAVYYCAAPWVPYPGYSLYGYDYWGQGTQVSVSS	low polyreactivity
QVQLVESGGGLVQARGSLRLSCAASGSIFYNNALGWYRQAPGKERELVAAISGSGDSTYYADSVKGRFTISRENAKNTVYLQMNSLKPEDTAVYYCNATPYVLWWSDMDYWGQGTQVTVSS	high polyreactivity
QVQLVESGGGLVQARGSLRLSCAASGSILDYYVMGWYRQAPGKERELVAAIRGGGSTYYADSVKGRFTISRDNAKNTVYLQMNSLKPEDTAVYYCAKDSQTARDFDYWGQGTQVTVSS	low polyreactivity
QVQLVESGGGLVQARGSLRLSCAASGSISVYNAMGWYRQAPGKERELVAAISWSGGRTSYADSVKGRFTISRDNAKNTVYLQMNSLKPEDTAVYYCAADELTVLWDEDYWGQGTQVTVSS	low polyreactivity
QVQLVESGGGLVQARGSLRLSCAASGSTFDYYAMGWYRQAPGKEWELVAAIDTSGDDTYYADSVKGRFTISRDNAKNTVYLQMNSLKPEDTAVYYCAADFPYDEVDYWGQGTQVTVSS	low polyreactivity
QVQLVESGGGLVQARGSLRLSCAASGSTFEHNAMGWYRQGPGKERELVAAISYSGGRTYYADSVKGRFTISRDNAKNTVYLQMNSLKTEDTAVYYCAAPYYSWPYYYWGLGTQVTVSS	high polyreactivity
QVQLVESGGGLVQARGSLRLSCAPSGRTFQLNAMGWYRQAPGKERQLFAAITVSGGGKYYADSVKGRFTISRDYAKNTVYFQMNSLKPEDTAVYYCNAKYKTRGRKSLYDYWGQGTQVTVSS	high polyreactivity
QVQLVESGGGLVQARGSLRLSCASSGRIFDNYAMGWYRQAPGKERELVAAITYIDSGTYYADSVKGRFTISRDNAKNTVYLQMNSLKPEDTAVFYCAVGLNSDSKRKTQKYGYWGQGTQVTVSS	low polyreactivity
QVQLVESGGGLVQARGSLRLSCASSGSIFTDNGMGWYRQPPGKESDLVAAISWRGGTYYADSVKGRFTISRDNAKNTVYLQMNSLKPEDSAVYYSAADVLRISTRLFRGPGFDSWGQGTQVTVSS	low polyreactivity
QVQLVESGGGLVQARGSLRLSSAASGSTFSYYAMGGYRQEHGTETQLVATISKRGGSTYYADSVKGRFTISRDNAKNTVYLQMNSLKPEDTAVYYCAAEFLVRYGYDYWGQGTQVTVSS	high polyreactivity
QVQLVESGGGLVQAVASIRLSCAASGITIYLYAKGWSRQAPGKARELVATITSRSGSTYYADSVKGRFTISRDNAKNTVYLQMNSLKPEDTAVYYCAAKYPRYLYGYWGQGTQVTVSS	high polyreactivity
QVQLVESGGGLVQAVCSLRLSCAASGIIFVYYVMGWYRQAPGKERELVASIDGSGGSTNYADSVKGRFTISRDNAKNTVYLQMNSLKPEDTAVYYCAASGRYDYDYWGQGTQVTVSS	low polyreactivity
QVQLVESGGGLVQAVGSHRLSCAASGRIFGNNVMGWYRQEPGKERELVAANTFSGTSTYYADSVKGRFTISRDNAKNTVYLQMNSLKPEDTAVYYCAKYRYADYYSPGYDYWGQGTQVTVSS	low polyreactivity
QVQLVESGGGLVQAVGSLLLSCAASGSIFRVYAMGWSRQAPGKERELVAAISVSGSSTYYADSVKGRFTISRDNAKNTVYFQMNCLIPEDTAVYYCATKQRRGYWGYITAYARYYWGQGTQVTVSS	high polyreactivity
QVQLVESGGGLVQAVGSLRLICDASGRIFYGYAMGWYRQAPGTERELVAANTYIGGTYYADSVKGRFTISRDNAKNTVDFLMNSVKPEDTSVYYWATEPFYNYGYFTYPYWYDYWGQGSQVTVSS	low polyreactivity
QVQLVESGGGLVQAVGSLRLSCAASGFIFSYYAMGWYRQAPGKERELVAAISRSGSITYYADSVKGRFTISRDNAKNTVYLQMNRLKPEDTAVYYCAARYWRRGSSGRLNYWGQGTQVTVSS	high polyreactivity
QVQLVESGGGLVQAVGSLRLSCAASGFIFYRNVMGWYREAPGKERELVAAISGSGGRTYYADSVKGRFTISRDNAKNTVYLQLNSLKPEDTAVYDCAADASLEGDYWGQGTQVTVSS	high polyreactivity
QVQLVESGGGLVQAVGSLRLSCAASGFILTRYAMGWYRQAPGKERELVAGIRLRGGSTYYADSVKGRFTISRDNAKNTVYLQMNSLKPEDTAVYYCAARYYYQYDYWGQGTQVTVSS	high polyreactivity
QVQLVESGGGLVQAVGSLRLSCAASGITFKWYAMGSYRHAPGKERELVAAISWSTGSTYYADSVKGRFTISRDNAKNTVYLQMNSLKPEDTAVYYCAARVKRPQTGYDRRYGYWGQGTQVTVSS	high polyreactivity
QVQLVESGGGLVQAVGSLRLSCAASGITFNLYAMGWYRQAPGKEREFVAGITASGSSTYDADSVKGRFTISRDNAKNTVYLQMNSLKPEDTAVYYCAARWHIYYFSYVTSYAYGYWGQGTQVTVSS	high polyreactivity
QVQLVESGGGLVQAVGSLRLSCAASGLIFDANAMGWYRQAPGKERELVAAISNGDSTYYADSVKGRLTISRDNAKNTVYLQMNSLKPEDTAVYYCNARIIYRKWLFRSGTFNYWGQGTQVTVSS	low polyreactivity
QVQLVESGGGLVQAVGSLRLSCAASGSIFDVNAMGWYRQAPGKERELVAAISQRGTRTYYADSVKGRFTISRDNAKNTVYLQMNSLKPEDTAVYYCNRGGWRQYDSWGQGTQVTVSS	high polyreactivity
QVQLVESGGGLVQAVGSLRLSCAASGSISVYYAMGWYRQAPGKEMELVAAISRSGGRTYYADSVKGRFTISRDNAKNTVYLQMNSLKPEDTAVYYCAAGYSSLRRFGVYYWGQGTQVTVSS	high polyreactivity
QVQLVESGGGLVQAVGSLRLSCAASGSTFDHYAMGWYRQAPGKERELVAAISYSGSTTDYADSVKGRFTISRDNAMNTVYLQMISLKPEDTAVYYCAASGDVIQSPMDYWGQGTQVTVSS	low polyreactivity
QVQLVESGGGLVQAVGSLRLSCAASGSTFFWYAMGWYRQAPGKERELVAAISKTGGSTYYADSVKGRFTISRDNAKNTVYLQMNSLKPEDTAVYYCAKPLSSFSRTSSVWPWYDYWGQGTQVTVSS	low polyreactivity
QVQLVESGGGLVQAVGSLRLSCAASGSTLSFNAMGWYRQAPGKERELVAGITYSGGSTYYADSVKGRFTISRDNAKNTVYLQMNSLKPEDTAVYYCNKASGVYYGHLDYWGQGTQVTVSS	low polyreactivity
QVQLVESGGGLVQAVGSLRLSCAASGYFFSSNAMGWYSQSPGKERELVAAITASGGGTYYADSVKGRFTISRDNAQNTVYIQMKSLKPEDTAVYYCAADFNDHYYWYGQDFDYWGQGTQVTVSS	low polyreactivity
QVQLVESGGGLVQAVGSLRLSCAAYGSTFYVNAMGWYRQAPGKEREFVAAITWNSGSTYYADSVKGRFTISRDNAKNTVYLQMNSLKPEDTAVYYCAAVLYVRVYGYDYWGQGTQVTVSS	low polyreactivity

— the nanobody polyreactivity screen of Harvey et al. (2022)
